Target: cell surface-expressed human αvβ8 (human, UniProt P06756 31-1048; P26012 43-769)
Experiment: cell-based or functional assay

cell surface-expressed human αvβ8, sequence (P06756 31-1048, chain 1 of 2): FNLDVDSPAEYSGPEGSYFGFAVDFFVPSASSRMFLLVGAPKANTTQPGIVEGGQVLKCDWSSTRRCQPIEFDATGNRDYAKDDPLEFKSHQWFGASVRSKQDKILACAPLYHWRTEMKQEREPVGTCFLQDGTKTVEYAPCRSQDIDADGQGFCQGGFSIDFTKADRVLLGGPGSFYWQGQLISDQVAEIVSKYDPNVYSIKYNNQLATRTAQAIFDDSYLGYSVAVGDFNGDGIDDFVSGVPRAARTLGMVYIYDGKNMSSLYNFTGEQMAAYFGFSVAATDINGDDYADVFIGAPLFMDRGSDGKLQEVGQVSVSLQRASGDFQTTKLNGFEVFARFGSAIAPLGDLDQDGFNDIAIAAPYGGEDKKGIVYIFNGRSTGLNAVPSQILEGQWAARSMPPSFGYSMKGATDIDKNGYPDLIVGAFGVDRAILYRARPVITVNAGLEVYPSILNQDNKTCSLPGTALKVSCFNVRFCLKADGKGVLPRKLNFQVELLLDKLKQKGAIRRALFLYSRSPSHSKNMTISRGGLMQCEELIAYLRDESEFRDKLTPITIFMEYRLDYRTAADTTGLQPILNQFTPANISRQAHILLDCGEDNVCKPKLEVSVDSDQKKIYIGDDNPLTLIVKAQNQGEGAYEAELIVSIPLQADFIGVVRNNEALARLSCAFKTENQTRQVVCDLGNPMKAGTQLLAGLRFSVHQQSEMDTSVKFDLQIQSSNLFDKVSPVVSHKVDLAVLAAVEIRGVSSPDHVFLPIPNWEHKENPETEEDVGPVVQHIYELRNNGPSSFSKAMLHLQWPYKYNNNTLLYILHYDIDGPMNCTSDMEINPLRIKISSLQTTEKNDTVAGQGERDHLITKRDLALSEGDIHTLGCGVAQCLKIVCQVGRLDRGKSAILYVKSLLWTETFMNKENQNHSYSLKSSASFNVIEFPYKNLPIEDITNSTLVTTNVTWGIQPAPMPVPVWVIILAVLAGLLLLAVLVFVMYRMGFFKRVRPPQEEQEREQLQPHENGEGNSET
cell surface-expressed human αvβ8, sequence (P26012 43-769, chain 2 of 2): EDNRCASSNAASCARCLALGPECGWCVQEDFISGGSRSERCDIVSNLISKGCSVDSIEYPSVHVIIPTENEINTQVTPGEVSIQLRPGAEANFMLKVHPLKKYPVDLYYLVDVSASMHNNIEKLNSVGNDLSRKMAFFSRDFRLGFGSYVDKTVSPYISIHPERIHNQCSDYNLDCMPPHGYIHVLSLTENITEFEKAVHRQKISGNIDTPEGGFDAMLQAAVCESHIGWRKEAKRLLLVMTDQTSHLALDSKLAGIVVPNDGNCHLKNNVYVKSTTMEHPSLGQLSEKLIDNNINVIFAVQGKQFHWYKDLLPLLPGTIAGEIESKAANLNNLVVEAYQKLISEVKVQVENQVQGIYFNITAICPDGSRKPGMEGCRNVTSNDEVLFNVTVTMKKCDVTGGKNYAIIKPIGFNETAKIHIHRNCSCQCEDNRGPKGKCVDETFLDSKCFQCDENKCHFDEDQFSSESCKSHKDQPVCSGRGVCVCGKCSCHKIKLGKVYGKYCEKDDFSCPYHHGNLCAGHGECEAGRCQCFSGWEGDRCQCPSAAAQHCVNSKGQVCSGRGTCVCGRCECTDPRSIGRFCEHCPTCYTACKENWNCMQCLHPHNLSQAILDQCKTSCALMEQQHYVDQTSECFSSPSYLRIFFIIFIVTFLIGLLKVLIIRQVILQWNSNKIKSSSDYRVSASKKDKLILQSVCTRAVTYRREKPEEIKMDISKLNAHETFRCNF

inhibition of adhesion of L229 cells expressing αvβ8 to TGFb1 LAP (potency against ADWA11): > 10 fold
B1: ADWA16 (antibody, V domains shown)
VH: QVQLQQSGAELAKPGASMKMSCKASGYTFSSYWIYWVKQRPGQGLEWIGYINPTTGYTEYNQKFRDKATLTADKSSNTAYMQLSSLTSEDSAVYYCATEGGNWEDYWGQGTTLTVSS
VL: DIQMTQTTSSLSASLGDRVTISCRASQDISNYLNWYQQKPDGTVKLLIYYTSRLYSGVPSRFSGSGSGTDYSLTISNLEPKDIATYYCQQFSELPRTFGGGTKLEIK
